{
  "source": "patent US20220251236A1",
  "about": "(Boehringer Ingelheim, published 2022)",
  "key": {"[1]": {"target": "T1, T CELLS (human, UniProt P07766;P09693)", "T1 construct": "native, on the surface of purified human T cells; The sheets print only 'T CELLS'; also called human CD3 on purified human T cells; CD3 epsilon/gamma complex", "T1 sequence (P07766 23-207, chain 1 of 2)": "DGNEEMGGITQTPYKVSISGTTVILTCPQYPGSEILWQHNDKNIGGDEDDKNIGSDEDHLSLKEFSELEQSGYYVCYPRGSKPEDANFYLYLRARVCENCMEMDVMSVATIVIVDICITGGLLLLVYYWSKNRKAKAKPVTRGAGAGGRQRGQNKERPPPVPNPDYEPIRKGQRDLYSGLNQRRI", "T1 sequence (P09693 23-182, chain 2 of 2)": "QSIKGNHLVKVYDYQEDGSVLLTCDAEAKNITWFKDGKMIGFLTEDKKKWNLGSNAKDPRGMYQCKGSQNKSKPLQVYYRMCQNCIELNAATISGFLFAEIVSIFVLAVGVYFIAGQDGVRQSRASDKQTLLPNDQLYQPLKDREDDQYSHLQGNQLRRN", "experiment": "flow cytometry titration on purified human T cells, PE anti-human secondary, x-fold over background", "source_text": "(§1) Cells (T cells or human SCLC cells) were stained with increasing concentrations of two-step purified DLL3/CD3 binding proteins with increasing concentrations in FACS buffer (PBS/0.5% BSA/0.05% sodium azide). Bound molecules were detected with PE-conjugated anti-human secondary antibody (Sigma-Aldrich, #P8047)."}, "[2]": {"target": "T2, EGF1+2", "T2 construct": "also called Hu DLL3 EGF1+2 on HEK293 cells", "T2 membrane-anchored DLL3 subdomain construct": "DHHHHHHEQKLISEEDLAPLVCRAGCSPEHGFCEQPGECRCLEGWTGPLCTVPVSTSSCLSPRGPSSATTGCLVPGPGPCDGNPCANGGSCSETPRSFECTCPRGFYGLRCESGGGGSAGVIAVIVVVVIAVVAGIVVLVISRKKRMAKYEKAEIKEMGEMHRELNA", "experiment": "flow cytometry on HEK293 cells expressing the DLL3 subdomain construct, 1.6 nM binder, PE anti-human secondary, control: secondary antibody only", "outline": "(§2)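 Binders tested on HEK293 cells displaying the DLL3 subdomain construct; bound molecules detected by flow cytometry using PE-conjugated anti-human secondary antibody. Negative control: cells with secondary antibody only.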"}, "[3]": {"target": "T3, human DLL3 (endogenous, on SCLC cell lines NCI-H82 and SHP77 and in SCLC tissue) (human, UniProt Q9NYJ7 27-618)", "T3 construct": "whole, on cells; also called SCLC cell lines expressing DLL3", "T3 sequence (looked up)": "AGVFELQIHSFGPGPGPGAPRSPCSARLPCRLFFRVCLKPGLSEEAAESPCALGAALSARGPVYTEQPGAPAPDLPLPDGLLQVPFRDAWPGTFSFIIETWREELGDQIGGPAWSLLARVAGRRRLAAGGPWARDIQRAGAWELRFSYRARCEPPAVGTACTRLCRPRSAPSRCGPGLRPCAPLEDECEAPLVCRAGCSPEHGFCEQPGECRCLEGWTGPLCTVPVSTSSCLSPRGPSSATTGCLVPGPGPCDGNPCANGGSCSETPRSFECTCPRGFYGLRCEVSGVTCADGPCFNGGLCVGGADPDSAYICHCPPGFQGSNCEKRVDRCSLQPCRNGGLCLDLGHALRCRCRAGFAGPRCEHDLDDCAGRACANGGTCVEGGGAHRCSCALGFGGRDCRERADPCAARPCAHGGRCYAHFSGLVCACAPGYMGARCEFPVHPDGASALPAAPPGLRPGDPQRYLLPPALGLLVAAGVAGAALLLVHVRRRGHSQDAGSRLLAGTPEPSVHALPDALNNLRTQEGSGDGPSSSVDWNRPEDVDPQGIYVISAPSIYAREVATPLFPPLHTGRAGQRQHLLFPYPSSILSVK", "experiment": "flow cytometry titration on NCI-H82 cells, PE anti-human secondary, x-fold over background", "source_text": "as §1"}, "[4]": {"target": "T4, EGF3+4", "T4 construct": "also called Hu DLL3 EGF3+4 on HEK293 cells", "T4 membrane-anchored DLL3 subdomain construct": "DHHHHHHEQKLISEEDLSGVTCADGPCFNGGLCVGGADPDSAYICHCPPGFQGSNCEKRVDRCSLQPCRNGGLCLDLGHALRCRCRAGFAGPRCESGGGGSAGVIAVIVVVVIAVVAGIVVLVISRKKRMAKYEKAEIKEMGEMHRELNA", "experiment": "flow cytometry on HEK293 cells expressing the DLL3 subdomain construct, 1.6 nM binder, PE anti-human secondary, control: secondary antibody only", "outline": "as §2"}},
  "data": [
    {"binder": "DLL3#2/CD3#1 (bispecific antibody, human IgG1, kappa, lambda, L234A L235A, Heterodimer of one DLL3 chain and one CD3 chain (scFab-Fc, knob-in-hole)) chain 1: DIQMTQSPSAMSASVGDRVTITCRASQGISNYLAWFQQKPGKVPEPLIYAASSLQSGVPSRFSGSGSVTEFTLTISSLQPEDFATYYCLQHNSSPYTFGQGTKLEIKRTVAAPSVFIFPPSDEQLKSGTASVVCLLNNFYPREAKVQWKVDNALQSGNSQESVTEQDSKDSTYSLSSTLTLSKADYEKHKVYACEVTHQGLSSPVTKSFNRGECGGGGSEGKSSGSGSESKSTEGKSSGSGSESKSTGGGGSQVQLVQSGAEVKKPGASVKVSCKASGYTFTSYYMHWVRQAPGQGLEWMGIINPSGGSTSYAQKFQGRVTMTRDTSTSTVYMELSSLRSEDTAVYYCARGEAVGGNYYYYGMDVWGQGTTVTVSSASTKGPSVFPLAPSSKSTSGGTAALGCLVKDYFPEPVTVSWNSGALTSGVHTFPAVLQSSGLYSLSSVVTVPSSSLGTQTYICNVNHKPSNTKVDKRVEPKSCDKTHTCPPCPAPEAAGGPSVFLFPPKPKDTLMISRTPEVTCVVVDVSHEDPEVKFNWYVDGVEVHNAKTKPREEQYNSTYRVVSVLTVLHQDWLNGKEYKCKVSNKALPAPIEKTISKAKGQPREPQVYTLPPSREEMTKNQVSLWCLVKGFYPSDIAVEWESNGQPENNYKTTPPVLDSDGSFFLYSKLTVDKSRWQQGNVFSCSVMHEALHNHYTQKSLSLSPG chain 2: EAVVTQEPSLTVSPGGTVTLTCRSSTGAVTTSNYANWVQEKPGQLPRGLIGGTNKRAPWVPARFSGSLLGGKAALTLSGAQPEDEAEYFCALWYSNLWVFGGGTKLTVLGQPKAAPSVTLFPPSSEELQANKATLVCLISDFYPGAVKVAWKADGSPVNTGVETTTPSKQSNNKYAASSYLSLTPEQWKSHRSYSCQVTHEGSTVEKTVAPAECSGGGGSEGKSSGSGSESKSTEGKSSGSGSESKSTGGGGSEVQLVESGGGLVQPGGSLKLSCAASGFTFNTYAMNWVRQAPGKGLEWVARIRSKYNNYATYYADSVKDRFTISRDDSKNTAYLQMNNLKTEDTAVYYCVRHGNFGNSYVSWFAYWGQGTLVTVSAASTKGPSVFPLAPSSKSTSGGTAALGCLVKDYFPEPVTVSWNSGALTSGVHTFPAVLQSSGLYSLSSVVTVPSSSLGTQTYICNVNHKPSNTKVDKRVEPKSCDKTHTCPPCPAPEAAGGPSVFLFPPKPKDTLMISRTPEVTCVVVDVSHEDPEVKFNWYVDGVEVHNAKTKPREEQYNSTYRVVSVLTVLHQDWLNGKEYKCKVSNKALPAPIEKTISKAKGQPREPQVYTLPPSREEMTKNQVSLSCAVKGFYPSDIAVEWESNGQPENNYKTTPPVLDSDGSFFLVSKLTVDKSRWQQGNVFSCSVMHEALHNRFTQKSLSLSPG", "values": [
      {"measurement": "EC50 (read off the curve)", "setting": "[1]", "result": "~10", "unit": "nM"}
    ]},
    {"binder": "DLL3#5/CD3#1 (bispecific antibody, human IgG1, kappa, lambda, L234A L235A, Heterodimer of one DLL3 chain and one CD3 chain (scFab-Fc, knob-in-hole)) chain 1: not shown chain 2: EAVVTQEPSLTVSPGGTVTLTCRSSTGAVTTSNYANWVQEKPGQLPRGLIGGTNKRAPWVPARFSGSLLGGKAALTLSGAQPEDEAEYFCALWYSNLWVFGGGTKLTVLGQPKAAPSVTLFPPSSEELQANKATLVCLISDFYPGAVKVAWKADGSPVNTGVETTTPSKQSNNKYAASSYLSLTPEQWKSHRSYSCQVTHEGSTVEKTVAPAECSGGGGSEGKSSGSGSESKSTEGKSSGSGSESKSTGGGGSEVQLVESGGGLVQPGGSLKLSCAASGFTFNTYAMNWVRQAPGKGLEWVARIRSKYNNYATYYADSVKDRFTISRDDSKNTAYLQMNNLKTEDTAVYYCVRHGNFGNSYVSWFAYWGQGTLVTVSAASTKGPSVFPLAPSSKSTSGGTAALGCLVKDYFPEPVTVSWNSGALTSGVHTFPAVLQSSGLYSLSSVVTVPSSSLGTQTYICNVNHKPSNTKVDKRVEPKSCDKTHTCPPCPAPEAAGGPSVFLFPPKPKDTLMISRTPEVTCVVVDVSHEDPEVKFNWYVDGVEVHNAKTKPREEQYNSTYRVVSVLTVLHQDWLNGKEYKCKVSNKALPAPIEKTISKAKGQPREPQVYTLPPSREEMTKNQVSLSCAVKGFYPSDIAVEWESNGQPENNYKTTPPVLDSDGSFFLVSKLTVDKSRWQQGNVFSCSVMHEALHNRFTQKSLSLSPG", "values": [
      {"measurement": "binding result", "setting": "[2]", "result": "binds"}
    ]},
    {"binder": "DLL3#4/CD3#1 (bispecific antibody, human IgG1, kappa, lambda, L234A L235A, Heterodimer of one DLL3 chain and one CD3 chain (scFab-Fc, knob-in-hole)) chain 1: not shown chain 2: EAVVTQEPSLTVSPGGTVTLTCRSSTGAVTTSNYANWVQEKPGQLPRGLIGGTNKRAPWVPARFSGSLLGGKAALTLSGAQPEDEAEYFCALWYSNLWVFGGGTKLTVLGQPKAAPSVTLFPPSSEELQANKATLVCLISDFYPGAVKVAWKADGSPVNTGVETTTPSKQSNNKYAASSYLSLTPEQWKSHRSYSCQVTHEGSTVEKTVAPAECSGGGGSEGKSSGSGSESKSTEGKSSGSGSESKSTGGGGSEVQLVESGGGLVQPGGSLKLSCAASGFTFNTYAMNWVRQAPGKGLEWVARIRSKYNNYATYYADSVKDRFTISRDDSKNTAYLQMNNLKTEDTAVYYCVRHGNFGNSYVSWFAYWGQGTLVTVSAASTKGPSVFPLAPSSKSTSGGTAALGCLVKDYFPEPVTVSWNSGALTSGVHTFPAVLQSSGLYSLSSVVTVPSSSLGTQTYICNVNHKPSNTKVDKRVEPKSCDKTHTCPPCPAPEAAGGPSVFLFPPKPKDTLMISRTPEVTCVVVDVSHEDPEVKFNWYVDGVEVHNAKTKPREEQYNSTYRVVSVLTVLHQDWLNGKEYKCKVSNKALPAPIEKTISKAKGQPREPQVYTLPPSREEMTKNQVSLSCAVKGFYPSDIAVEWESNGQPENNYKTTPPVLDSDGSFFLVSKLTVDKSRWQQGNVFSCSVMHEALHNRFTQKSLSLSPG", "values": [
      {"measurement": "EC50 (read off the curve)", "setting": "[3]", "result": "~0.1", "unit": "nM"},
      {"measurement": "binding result", "setting": "[4]", "result": "binds"}
    ]}
  ]
}
